± gives the uncertainty stated by the source.
Assay: self-splicing fitness, log relative to wild type (ln ratio); higher = more splicing; Tetrahymena group I intron in knt gene, E. coli kanamycin selection, DiMSum; sequences stand for … in CUCUCU…GGAGGGAAAAGUUAUCAGGCAUGCACCUGGUAGCUAGUCUUUAAACCAAUAGAUUGCAUCGGUUUAAAAGGCAAGACCGUCAAAUUGCGGGAAAGGGGUCAACAGCCGUUCAGUACCAAGUCUCAGGGGAAACUUUGAGAUGGCCUUGCAAAGGGUAUGGUAAUAAGCUGACGGACAUGGUCCUAACCACGCAGCCAAGUCCUAAGUCAACAGAUCUUCUGUUGAUAUGGAUGCAGUUCACAGACUAAAUGUCGGUCGGGGAAGAUGUAUUCUUCUCAUAAGAUAUAGUCGGACCUCUCCUUAAUGGGAGCUAGCGGAUGAAGUGAUGCAACACUGGAGCCGCUGGGAACUAAUUUGUAUGCGAAAGUAUAUUGAUUAGUUUUGGAGUACUCGUGGUCG
How it was run: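 Library with all eight P1ex-region intron nucleotides randomised, intron inside the knt kanamycin-resistance gene on pET-22b(+), in E. coli BL21(DE3). Cells grew overnight at 37°C or 30°C on LB agar with or without 25 μg/mL kanamycin (plus 100 μg/mL carbenicillin, 50 μM IPTG, 0.2% rhamnose), in six replicate transformations. Pooled colonies were amplicon-sequenced on Illumina HiSeq 2500. DiMSum fitness is the error-weighted combination of wild-type-normalised replicate fold changes, kanamycin versus none.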

Sequence	self-splicing fitness (ln) (30 °C)	self-splicing fitness (ln) (37 °C)
AGAUAGCAAUAUUACGUCCU	0.545 ± 0.095	0.159 ± 0.1
CGCAAGCAAUAUUACGGAUA	-3.52 ± 0.22	-2.23 ± 0.16
ACGUAGCAAUAUUACGUUGA	-3.4 ± 0.29	-2.78 ± 0.28
GGACAGCAAUAUUACGACGG	-2.69 ± 0.28	-2.16 ± 0.36
AGAUAGCAAUAUUACGCAGC	-2.44 ± 0.22	-1.43 ± 0.4
GAGGAGCAAUAUUACGCUAU	-2.8 ± 0.27	-2.05 ± 0.45
UGUAAGCAAUAUUACGGUGU	-3.61 ± 0.22	-0.0793 ± 0.17
CGGUAGCAAUAUUACGUGAA	-2.67 ± 0.18	-1.52 ± 0.19
CCAUAGCAAUAUUACGGUUU	-4.54 ± 0.25	-2.79 ± 0.21
UACGAGCAAUAUUACGCAGA		-2.33 ± 0.31
GCCCAGCAAUAUUACGUUGC	-1.11 ± 0.063	-0.368 ± 0.094
CACCAGCAAUAUUACGUCUC	-2.89 ± 0.13	-2.38 ± 0.21
CGGCAGCAAUAUUACGUAAC	-1.24 ± 0.21	
GGGGAGCAAUAUUACGCAGG		-2.08 ± 0.46
UGCGAGCAAUAUUACGUAUU	-3.07 ± 0.17	-2.58 ± 0.2
CUUCAGCAAUAUUACGGGAU	-2.14 ± 0.084	-1.34 ± 0.095
CCUUAGCAAUAUUACGUUCC	-3.14 ± 0.31	-2.51 ± 0.34
GAAAAGCAAUAUUACGUUAG	-2.27 ± 0.12	-1.85 ± 0.14
UACCAGCAAUAUUACGGGGU	-4.41 ± 0.16	-2.68 ± 0.15
CGGAAGCAAUAUUACGACAA	-2.42 ± 0.31	-2.2 ± 0.33
CCUGAGCAAUAUUACGCCGA	-3.1 ± 0.39	-3.2 ± 0.4
GCGUAGCAAUAUUACGGGCG	-2.97 ± 0.22	-2.09 ± 0.22
ACACAGCAAUAUUACGCGGC	-2.29 ± 0.12	-2.92 ± 0.16
AGAUAGCAAUAUUACGGUUA	-0.766 ± 0.11	-0.936 ± 0.1
AUCGAGCAAUAUUACGGCGU	-0.0628 ± 0.11	-0.183 ± 0.11

Sequence	self-splicing fitness (ln) (30 °C)	self-splicing fitness (ln) (37 °C)
CUAGAGCAAUAUUACGCAGU	-2.58 ± 0.12	-3.17 ± 0.2
GUUAAGCAAUAUUACGAUGG		-1.77 ± 0.23
CGUGAGCAAUAUUACGCUUA		-2.18 ± 0.35
UAGUAGCAAUAUUACGACGC	-3.61 ± 0.25	-0.996 ± 0.21
AGUAAGCAAUAUUACGUUUG	-4.38 ± 0.29	-2.13 ± 0.21
GGGUAGCAAUAUUACGCGGG	-2.2 ± 0.26	-2.42 ± 0.23
UUAAAGCAAUAUUACGGUUC	-3.46 ± 0.19	-1.81 ± 0.18
CGGGAGCAAUAUUACGGUUU		-1.19 ± 0.32
ACUUAGCAAUAUUACGGGCU	-1.74 ± 0.084	-0.866 ± 0.11
CGGUAGCAAUAUUACGUCUG	-0.631 ± 0.086	-0.338 ± 0.11
GCUUAGCAAUAUUACGCUCG	-0.579 ± 0.1	-0.0325 ± 0.16
GUCCAGCAAUAUUACGCGAC	-3.04 ± 0.19	-2.86 ± 0.21
CGCUAGCAAUAUUACGUAGA	-2.69 ± 0.14	-1.54 ± 0.19
AGAUAGCAAUAUUACGCGAC	-2.67 ± 0.29	-1.21 ± 0.39
CCGGAGCAAUAUUACGUGGA	-3.59 ± 0.47	-2.16 ± 0.25
AUUUAGCAAUAUUACGUUGU	-3.01 ± 0.19	-2.82 ± 0.27
CCACAGCAAUAUUACGACGG	-3.63 ± 0.12	-1.63 ± 0.1
AGCGAGCAAUAUUACGCCAC	-1.84 ± 0.39	
CAAUAGCAAUAUUACGUCGC	-4.1 ± 0.36	-2.56 ± 0.29
UUGCAGCAAUAUUACGAAGA	-2.37 ± 0.21	-1.57 ± 0.18
CGAUAGCAAUAUUACGCCUC	-2.84 ± 0.24	-1.74 ± 0.26
UUCCAGCAAUAUUACGAUGA	-0.211 ± 0.067	0.0453 ± 0.072
CUGUAGCAAUAUUACGAGUC		-2.05 ± 0.31
CCUGAGCAAUAUUACGUAAA		-2.49 ± 0.33
AUCCAGCAAUAUUACGGUAU	-2.88 ± 0.13	-1.19 ± 0.12

Sequence	self-splicing fitness (ln) (30 °C)	self-splicing fitness (ln) (37 °C)
UUGAAGCAAUAUUACGGUGG	-0.88 ± 0.059	-0.498 ± 0.11
GCCCAGCAAUAUUACGGUCG	-1.61 ± 0.083	-1.31 ± 0.096
AGAUAGCAAUAUUACGAAUG	-2.62 ± 0.13	-1.32 ± 0.11
AACAAGCAAUAUUACGUUUA	-2.45 ± 0.09	-1.07 ± 0.074
GCAAAGCAAUAUUACGCUAU	-2.57 ± 0.23	-1.06 ± 0.17
ACGAAGCAAUAUUACGACGC	-0.651 ± 0.18	-0.221 ± 0.16
UAAGAGCAAUAUUACGAAAU		-1.61 ± 0.32
UUUUAGCAAUAUUACGCGCU	-2.57 ± 0.25	-0.994 ± 0.21
GCAGAGCAAUAUUACGCCGU	-1.7 ± 0.15	-2.65 ± 0.41
UACUAGCAAUAUUACGGGGC	-3.02 ± 0.3	-2.5 ± 0.44
GUGAAGCAAUAUUACGUCGA	-0.469 ± 0.077	0.751 ± 0.12
GGAUAGCAAUAUUACGAUUG	-1.55 ± 0.15	-1.44 ± 0.24
CCGUAGCAAUAUUACGACGG		-0.894 ± 0.28
GAAGAGCAAUAUUACGUUAA	-2.65 ± 0.22	-1.65 ± 0.2
AACGAGCAAUAUUACGGGUA	-2.96 ± 0.17	-0.912 ± 0.11
GUGUAGCAAUAUUACGCCAU	-3.15 ± 0.29	-1.51 ± 0.22
AGUGAGCAAUAUUACGCGCG	-1.28 ± 0.16	-1.83 ± 0.22
CCGAAGCAAUAUUACGCGUC	-3.28 ± 0.25	-3.2 ± 0.32
UGUAAGCAAUAUUACGAAUC	-1.82 ± 0.25	-2.33 ± 0.49
AGACAGCAAUAUUACGUAAU	-1.3 ± 0.05	-0.92 ± 0.071
AUGCAGCAAUAUUACGCCUU	-0.919 ± 0.072	-0.304 ± 0.095
UCGAAGCAAUAUUACGCUCG	-2.53 ± 0.31	-1.39 ± 0.27
UGCAAGCAAUAUUACGCGCA	-2.17 ± 0.23	-1.86 ± 0.29
CUAUAGCAAUAUUACGUUAC	-3.45 ± 0.25	-2.14 ± 0.33
CGGGAGCAAUAUUACGUAAA	-2.94 ± 0.34	

Sequence	self-splicing fitness (ln) (30 °C)	self-splicing fitness (ln) (37 °C)
UACAAGCAAUAUUACGCCUC	-3.38 ± 0.48	-2.1 ± 0.4
GACGAGCAAUAUUACGCGGU	-4.23 ± 0.31	-1.83 ± 0.2
ACUGAGCAAUAUUACGCCUG	-2.36 ± 0.19	-1.48 ± 0.19
UAUCAGCAAUAUUACGUCCU	-1.44 ± 0.18	-1.01 ± 0.2
GAAAAGCAAUAUUACGGGUG	-2.23 ± 0.079	-1.18 ± 0.1
UCGUAGCAAUAUUACGAUCC	-2.46 ± 0.35	
GCUGAGCAAUAUUACGGAUG	-3.53 ± 0.18	-1.22 ± 0.12
AAUGAGCAAUAUUACGGUUG	-2.99 ± 0.13	-2.81 ± 0.19
GGACAGCAAUAUUACGAUUU	0.167 ± 0.047	0.417 ± 0.065
GAUCAGCAAUAUUACGGUUC	-2.83 ± 0.23	-0.31 ± 0.14
AUUUAGCAAUAUUACGUAGU	-1.54 ± 0.079	-0.851 ± 0.1
CUUGAGCAAUAUUACGAUGG	-2.94 ± 0.2	-2.13 ± 0.23
UAGCAGCAAUAUUACGUAAA	-1.73 ± 0.099	-1.32 ± 0.13
CACCAGCAAUAUUACGCACA	-1.23 ± 0.16	-0.504 ± 0.14
UUAUAGCAAUAUUACGUAUA	-2.29 ± 0.15	-1.42 ± 0.13
CUGCAGCAAUAUUACGUUUA	-2.64 ± 0.19	-1.21 ± 0.19
ACUUAGCAAUAUUACGCAAC	-2.89 ± 0.19	-1.72 ± 0.17
UCCCAGCAAUAUUACGCUGC	-3.59 ± 0.24	-2.75 ± 0.34
UGGGAGCAAUAUUACGCUUC	-1.91 ± 0.36	
ACAAAGCAAUAUUACGUGUA	-2.6 ± 0.1	-1.56 ± 0.084
CGGAAGCAAUAUUACGUCUU	-1.67 ± 0.083	-0.53 ± 0.092
GGAAAGCAAUAUUACGUGCU	-1.11 ± 0.089	-0.467 ± 0.096
CAGGAGCAAUAUUACGGUCG	0.425 ± 0.084	0.544 ± 0.12
CUAUAGCAAUAUUACGGCCA		-3.35 ± 0.43
ACAGAGCAAUAUUACGAUCA	-3.4 ± 0.28	

Reference: the supplement of paper PMC7877785
